In the DeepSol protein solubility set:

Experiment: soluble on expression in E. coli; label from the status in PepcDB or PDB records

For “MSGSHHHHHHSSGIEGRSEVVMENVTAFWEEGFGELFEKAKQNNNNRKTSNGDDSLSFSNFSLLGTPVLKDINFKIERGQLLAVAGSTGAGKTSLLMMIMGELEPSEGKIKHSGRISFCSQFSWIMPGTIKENIIFGVSYDEYRYRSVIKACQLEEDISKFAEKDNIVLGEGGITLSGGQRARISLARAVYKDADLYLLDSPFGYLDVLTEKEIFESCVCKLMANKTRILVTSKMEHLKKADKILILHEGSSYFYGTFSELQNLQPDFSSKLMGCDSFDQFSAERRNSILTETLHRFSLEGDAPVSGGGGSGGGGSGGQMTVKDLTAKYTEGGNAILENISFSISPGQRVGLLGRTGSGKSTLLSAFLRLLNTEGEIQIDGVSWDSITLQQWRKAFGVIPQKVFIFSGTFRKNLDPYEQWSDQEIWKVADEVGLRSVIEQFPGKLDFVLVDGGCVLSHGHKQLMCLARSVLSKAKILLLDQPSAHLDPVTYQIIRRTLKQAFADCTVILCEHRIEAMLECQQFLVIEENKVRQYDSIQKLLNERSLFRQAISPSDRVKLFPHRNSSK”, which “soluble on expression in E. coli” value is on record?
The value was “soluble”.

With “MPLKLTTYYQGSEIPDFPGTNTFHSKELFQIYEETPGYTPLLIMASEDGKPVARLLAAIRKSIRMFPPAFIKRCEIYGTGEYLTAEADKERIFGEMLEHLTTEALRNSFLIEFRNLENAMFGYKYFRSNRYFPVNWLRVRNSLHGIENAEQRFSPSRIRQIKKGLKNGAKVDEARTVEEIREFSNMLRHLYSSRIRKHFPNIIFFQHMDTRLIHSRQAKIFIVRYKDKIIGGSACIYSGNDAYLWFSGGMRKTYALQYPGILAVWKALQDAHQNGFRHMEFMDAGLPFKKHGYRDFVLRFGGKQSSTRRWFRFRWQWLNDLLIKIYV” as the sequence, how does the “soluble on expression in E. coli” value read?
Its value is “not soluble”.

Which “soluble on expression in E. coli” value does the source give for “LVPRGSAMGSGNDTSRGANKTVVVTTILESPYVMMKKNHEMLEGNERYEGYCVDLAAEIAKHCGFKYKLTIVGDGKYGARDADTKIWNGMVGELVYGKADIAIAPLTITLVREEVIDFSKPFMSLGISIMIKKGTPIESAEDLSKQTEIAYGTLDSGSTKEFFRRSKIAVFDKMWTYMRSAEPSVFVRTTAEGVARVRKSKGKYAYLLESTMNEYIEQRKPCDTMKVGGNLDSKGYGIATPKGSSLGNAVNLAVLKLNEQGLLDKLKNKWWYDKGECGS” here?
Its value is “soluble”.

Which “soluble on expression in E. coli” value does the source give for “MAHHHHHHMDPSVSLEGIVDLTASNFDEHVGKGVPALVEFYAPWCGHCKKMVPEFEKVGQAVKTARDKVLVGKVDATQNRDLAERFGVNGYPTILFFPADSQTKQQYSEAREAAAFLSFLNRQVPGLNIGVPHEHTYAVELTKRNFDAVVMDEAKDALVMFYAPWCGHCKKLHPVFERLATAFKEEADIVIGKLNADDASNGAVRNRYKVDGYPTLAFFQKRSKSEPQYYSGGRSLEELVEYVNERTGKNRLPSGDLSEKVGVNDELSKVLRDMMLKEKSVDEKKQYLEKVKKAAADLTGVEAVHYPRIAEKILQLGAEYVEMELGRIARLKQGDVKGEKRDMLTIRNNILASLKDE” here?
The value was “not soluble”.

Which “soluble on expression in E. coli” value does the source give for “TAPIAITCFTRGLDIRKEKADVLCPGGCPLEEFSVYGNIVYASVSSICGAAVHRGVISNSGGPVRVYSLPGRENYSSVDANGIQSQMLSRWSASFTVTLE” here?
The value was “soluble”.

With “MSEASRDDYKIQSFDAQTQQLLKTALKDPGAVDLERVANVIVDHSLQDCVFSKEAGRMCYAIIQAESKQAGQSVFRRGLLNRLQKEYDAREQLRACSLQGWVCYVTFICNIFDYLRVNNMPMMALVNPVYDCLFQLAQPESLSREEEVDCLVLQLHRVGEQLEKMNGQRMDELFILIRDGFLLPTDLSSLARLLLLEMIEFRAAGWKTTPAAHKYYYSEVSD” as the sequence, how does the “soluble on expression in E. coli” value read?
The value was “not soluble”.

With “SEPGETIVEAMQREVKEEAGLLCEPVTLLSVEERGASWIRFVFLARPTGGVLKTSKDADSESLQAGWYPRVSLPTPLRAHDVLHLVELGAKFCQQAMHPLILPQELPCSVVCQRLVTTFTTVQSVWVLVGTVGTPHLPITACGFTPMEQRGGIKVAILRLLQECLTLHSLAVETKGLLGLQHLGRDHVDGVCLNVLVTVAFRNPGIQDEPPKIRGENYFWWKVLEEDLQKLLLYRLQESSVIPLSR” as the sequence, how does the “soluble on expression in E. coli” value read?
The value was “soluble”.

For “MGRNKEFDTALVLHRAIEVFGEYGYEGTSLQDLLSHLGIARQSLYDTYGTKRDLFLSAVKSYLEGKNAAVMERLEAPGSVKEAIRDIFQEGVNALRDPERAKACYIINSAIEQIPHDPELARYFERQSKQLEDAFYHGLLRAKDQGELNGEDTDISALARYLNQSRLSLTFIAKVTADMDRLQDHVDVSLSVLD”, which “soluble on expression in E. coli” value is on record?
The value was “soluble”.

Which “soluble on expression in E. coli” value does the source give for “SLTRAVAALLPDGKRLHLQHGPIDLIIGAEGGPGAREAAFVTATARFETVLAELVGELPLLKTELAPDAPLPLGPVARRMDTACRPLMALRLTRMAAVAGAVADEVLAAMLSSTPLTRAYVNNGGDIALHLTGDTRFTLAMATPDGRDLGRISLGTGDRIGGIATSGLGGRSLSLGIAESVTVLAPSAAGADAAATLIANATDLPGHPAIRRAPANTVKDDSDLGQRPVVTHCGPLDRNEVLHALENGRKLAVEMIANGHIRSAHLSLRGQSCQAGAIPVIAPERRLALA” here?
Its value is “soluble”.

For “MKDLIIIGAGQAGLTMGYYLKQEGYNFLLLEAGKRVGDSWRNRYDSLQLFTPRSYSSLPGMALIGEKNEFPYKDEIATYLEEYARHFQLPVQLQTEVLKIKKEKEIFELHTPTEILQTKKVIIASGAFQQPFIPSVSANLSSHIFQIHSSQYKSPSQIPKGKVLVVGGGNSGMQIAVELAKTHEVTVSISHPLTFLPLQLFGKSIFNLLEKVGLLYAEINTKRGRWFQKRKDPIFGFEGKKLIRNGAIKLQEKVVSASRNNIMFQNGDTYSAESIIWSTGFVQNYNWIEIEQAVNEKGFPNHIKGISPVKGLYYIGLPLEHHHHHH”, which “soluble on expression in E. coli” value is on record?
Its value is “not soluble”.

Which “soluble on expression in E. coli” value does the source give for “MGHHHHHHMAGVSEYELPEDPRWELPRDRLVLGKPLGEGAFGQVVLAEAIGLDKDKPNRVTKVAVKMLKSDATEKDLSDLISEMEMMKMIGKHKNIINLLGACTQDGPLYVIVEYASKGNLREYLQARRPPGLEFSFNPSHNPEEQLSSKDLVSCAYQVARGMEYLASKKCIHRDLAARNVLVTEDNVMKIADFGLARDIHHIDYYKKTTNGRLPVKWMAPEALFDRIYTHQSDVWSFGVLLWEIFTLGGSPYPGVPVEELFKLLKEGHRMDKPSNCTNELYMMMRDCWHAVPSQRPTFKQLVEDLDRIVALTSNQEYLDLSMPLD” here?
Its value is “soluble”.

With “MRLFAINAGNFKLDGGAMFGVVPKSIWNKLNPADSNNLCTWATRCLLIENGKQLVLIDTGLGDKQDESFFRHYYRDTPQTWDTLLKPYGFHSSDITDVVLTHLHFDHVGGALEKKGDKIVPTFSNARYWSNTRHWDWAVEPNPREKASFLKDNLFPLQESGQLYFVDTQNLPFEWMDFIFVDGHTEQQMLPLITTPAEKKILYAADLLPSAGHIPMPYIMSYDVRPLVSMQEKERVFNQVLAEDWTVFLEHDLSNACISLQQTEKGIRLNNVFQISDFNLEHHHHHH” as the sequence, how does the “soluble on expression in E. coli” value read?
The value was “not soluble”.

Which “soluble on expression in E. coli” value does the source give for “MAAKLQKWRNLAGRLDLMNRSGAVSTRRFLHEGPDTVEELLERHLAKKEKPIIDHDEAEFLNRRRLTSTRREALSLYRDILRATRFFTWIDSRGNLWRDVLRENARKEFEAARFETDPEVITRLLIGGSDAVSSALDKLAEKQREMIEKQRRGDQR” here?
Its value is “soluble”.

With “MGSDKIHHHHHHMMTKTKADKYPQRVRNELRFRELTVLRVERAGAAFQRIVLGGEALEGFASHGFDDHTKLFFPEPGAAFTPPQVTEEGIDWGEGVRPATRDYTPLYDAERHELAYDFYIHDGGIASRWALEAKVGDKLVIGGPRGSLVVPEDYAWQLYVCDESGMPALRRRLLGLRQLPARPQVTAIVTIADASYKDYLADLDGFNIEWVVGHNPAFVAERLAQVKVPAEDYFIWLTGEGAVVKSLLARFEDESIDQQLVRSQAYWHSK” as the sequence, how does the “soluble on expression in E. coli” value read?
Its value is “not soluble”.

Which “soluble on expression in E. coli” value does the source give for “TPMRSPIIWINGPFGVGKTHTAHTLHERLPGSFVFEPEEMGQALRKLTPGFSGDPQEHPMWIPLMLDALQYASREAAGPLIVPVSISDTARHRRLMSGLKDRGLSVHHFTLIAPLNVVLERLRRDGQPQVNVGTVEDRLNELRGEQFQTHIDTAGLGTQQVAEQIAAQVGLTLAPPPQGALHW” here?
Its value is “soluble”.
